Experimental data: publication PMC7891180, “Exploring the Role of a Cytokinin-Activating Enzyme LONELY GUY in Unicellular Microalga Chlorella variabilis” (Frontiers in Plant Science, 2021)

Tests used:
[1] = substrate: CC(C)=CCNc1ncnc2c1ncn2[C@@H]1O[C@H](COP(=O)(O)O)[C@@H](O)[C@H]1O; test: purified protein; assay type: biochemical, Chlorella variabilis; conditions: 50 mM Tris, 1 mM MgCl2, 1 mM DTT, pH 7, 30 °C
[2] = substrate: C/C(=C\CNc1ncnc2c1ncn2[C@@H]1O[C@H](COP(=O)(O)O)[C@@H](O)[C@H]1O)CO; test: purified protein; assay type: biochemical, Chlorella variabilis; conditions: 50 mM Tris, 1 mM MgCl2, 1 mM DTT, pH 7, 30 °C

B1: CvarLOG1 (Chlorella variabilis) (protein)
chain: MADSQPASFRKIAVFCGASSGSNPLYIEAARLLGAEMARRGIGLVYGGGNVGLMGAVAEAVGSRLGPDQVIGVIPAALEPREISGTTVGEIRVVGSMHERKAMMFEEADAFIMIPGGYGTLDETLEITTWQQLGFHTKPVGLLNINGFFNKLLAFLDHATQEGFIRPSSRAILVSGDTPGELIDTLAAYQAPPSLLRLASEGKLGVHERG
notes: native protein 211 residues
[1]
  Km: 54.99 µM
[2]
  Km: 133.5 µM
